Test results: patent US20020086007A1, “Angiogenesis-inhibiting peptides and proteins and methods of use” (priority 2000, published 2002)

Experiments:
HUVECs [1] = experiment: Localization of endostatin into cells and nuclei (cytosol/nuclei extract, immunoprecipitation, Western blot); type: cell-based, human; conditions: 100 ug/ml recombinant endostatin, 30 minutes; FIG. 4
Procedure: 3 T-75 of HUVECs grown at regular growth condition (about 95% confluent) were treated with 100 ug/ml recombinant endostatin for 30 minutes and rinsed with warm 1XPBS and then trypsinized. The control cells from 3 T-75 were the HUVECs treated with the same concentration of endostatin for 1 second. The trypsinized cells were then washed with cold PBS twice. About 40 μl of cell pellet was obtained from all three T-75 flasks. The cytosol extract and nuclei extract was obtained using a nuclei extraction kit (Pierce Company, Rockford, Ill.). The rabbit polyclonal antibodies against human endostatin (Cytimmune Sciences, College Station, Md.) were used to immunoprecipite endostatin protein present in the extract. The immunoprecipited elution was analyzed on Western blot probed with either the same polyclonal antibodies or the mAb 96-2. […] (FIG. 4).

[2] = system: tumor induced angiogenesis; conditions: systemic therapy; cited from earlier work
[3] = system: cultured endothelial cells; conditions: cited from earlier work
Live HUVECs cells = experiment: Staining of live endothelial cells with Alexa-labeled endostatin (fluorescence microscopy); type: cell-based, human; conditions: 8 ug/ml, 5, 15, 30 and 60 minutes; FIG. 6
Procedure: Live HUVECs cells were treated with 8 ug/mI Alexa-labeled endostatin for 5 minutes, 15 minutes, 30 minutes and 60 minutes, land washed with M-200 medium and fixed in 3.7% formaldehyde for 5 minutes and cold methanol for 5 minutes. Alexa-labeled endostatin can be visualized under the fluorescent microscope.

HUVECs [4] = experiment: Staining of fixed endothelial cells with Alexa-labeled endostatin; type: cell-based, human; conditions: HUVECs grown at 5 ng/ml VEGF, 40 μg/μl, 30 mins, FIG. 7
Procedure: HUVECs grown at 5 ng/ml VEGF were fixed in 3.7% formaldehyde for 5 mins. and cold methanol for 5 mins. and then stained with […] Alexa-labeled endostatin for 30 mins.

| Molecule | localization into cell and nuclei (HUVECs [1]) | suppression of tumor induced angiogenesis [2] | inhibition of endothelial proliferation and angiogenesis [3] | staining of live cells (Live HUVECs cells) | staining of fixed cells (HUVECs [4]) |
| --- | --- | --- | --- | --- | --- |
| endostatin: antiangiogenic fragment of a most C-terminal non-collagenous region of a collagen protein (SEQ ID NO: 1) (protein) HSHRDFQPVLHLVALNSPLSGGMRGIRGADFQCFQQARAVGLAGTFRAFLSSRLQDLYSIVRRADRAAVPIVNLKDELLFPSWEALFSGSEGPLKPGARIFSFDGKDVLRHPTWPQKSVWHGSDPNGRRLTESYCETWRTEAPSATGQASSLLGGRLLGQSAASCHHAYIVLCIENSFMTASK | able to localize into HUVEC cell and nuclei | nearly complete suppression | potent and specific inhibitor |  |  |
| Alexa-labeled endostatin: endostatin labeled with Alexa dye, visualized under the fluorescent microscope (conjugate, UniProt P39060 1572-1754, looked up, Endostatin Alexa dye label, endostatin labeled with Alexa dye, visualized under the fluorescent microscope) Endostatin: HSHRDFQPVLHLVALNSPLSGGMRGIRGADFQCFQQARAVGLAGTFRAFLSSRLQDLYSIVRRADRAAVPIVNLKDELLFPSWEALFSGSEGPLKPGARIFSFDGKDVLRHPTWPQKSVWHGSDPNGRRLTESYCETWRTEAPSATGQASSLLGGRLLGQSAASCHHAYIVLCIENSFMTASK |  |  |  | stains the cytosol and nuclei even as early as at the 5 minute time point | stained not only the cytoskeleton network, but also stained the nuclei |
